Results published in patent publication US20190389958A1 (MSM PROTEIN TECHNOLOGIES, published 2019).

Columns and labels:
human CXCR4 [1] = target: T1, human CXCR4 (human, UniProt P61073 1-352); assay: flow cytometry, IgG 10 µg/mL, CXCR4-expressing Ramos (RA1) cells
T1 construct: whole, on cells; also called hCXCR4; LESTR
Description: Binding of test IgGs to CXCR4-expressing human lymphoma cells (Ramos; RA1, ATCC® CRL-1596™) was measured by fluorescent flow cytometry-based assay. Tumor cell staining was conducted as follows: human Fcγ receptors of RA1 cells were saturated by incubation at 4° C. for 30 minutes in PBS containing 2% human serum and 0.5 mM EDTA. Cells were then incubated at 4° C. for one hour with test IgGs or a human isotypic IgG1 kappa control (Coger Sarl, Paris, France) (both antibody types at 10 μg/mL). The cells were washed with PBS and further incubated for one hour at 4° C. with a goat F(ab′)2 fragment anti-human IgG (H+L)-PE (Beckman Coulter). The cells were washed twice with PBS and fixed with 0.5% formaldehyde in PBS for analysis by flow cytometry. The data were acquired using an eleven-color flow cytometer (LSRII, BD Biosciences), and the analyses were performed with the FlowJo flow cytometry analysis software (Tree Star Inc., Ashland, Oreg.). The living cells were selected using the side scatter (SSC) and the forward scatter (FSC); 10,000 events were acquired for each analysis. MFI values were recorded using the PE channel.

human CXCR4 [2] = target: T1, human CXCR4; assay: flow cytometry on Cf2-Th cells transfected with human CXCR4, IgG1 format
Description: A typical protocol for the fluorescent flow cytometry-based assay was as follows. Ten microliter of a purified test IgG solution or buffer as a control were added to 10 microliter of a suspension containing approximately 30,000 Cf2-Th cells transfected to express human CXCR4. After incubation on ice for 40 min, cells were washed with FACS buffer (phosphate-buffered saline (PBS), pH7.4; 2% fetal calf serum, 0.1% sodium azide) to remove unbound antibodies. Ten microliter of a solution of phycoerythrin (PE)-conjugated mouse anti-human Fc monoclonal antibody (1/20 dilution; catalog number 12-4998-82, eBioscience Inc., San Diego, Calif.) were then added to the cells, and, after a 30-min incubation on ice, cells were washed twice and then formalin-fixed (FIX buffer: PBS, pH7.4; 0.5% formaldehyde). Fixed samples were analysed by fluorescent flow cytometry using a Guava-PCA96 instrument (EMD Millipore Chemicals, Merck KGaA, Darmstadt, Germany).

human CXCR4 [3] = target: T1, human CXCR4; assay: cell-based or functional assay
human CXCR4 [4] = target: T1, human CXCR4; assay: cell-based or functional assay; remark: listed apart in the source

T1 sequence (P61073 whole entry): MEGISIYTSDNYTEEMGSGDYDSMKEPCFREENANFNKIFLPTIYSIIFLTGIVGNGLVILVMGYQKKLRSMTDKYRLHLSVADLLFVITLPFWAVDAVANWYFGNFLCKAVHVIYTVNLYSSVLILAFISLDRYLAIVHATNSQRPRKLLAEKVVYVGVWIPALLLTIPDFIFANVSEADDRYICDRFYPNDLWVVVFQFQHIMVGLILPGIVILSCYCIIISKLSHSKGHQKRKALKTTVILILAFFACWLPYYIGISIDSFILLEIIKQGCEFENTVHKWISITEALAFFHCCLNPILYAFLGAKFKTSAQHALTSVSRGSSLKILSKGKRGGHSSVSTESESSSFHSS

MFI (human CXCR4 [1]): 488
EC50 (human CXCR4 [2]): < 10 nM
% Inhibition of SDF-1alpha-induced chemotaxis of U937 cells (IgG at 100 nM) (human CXCR4 [3]): 77%
IC50 (nM), inhibition of SDF-1alpha-induced calcium flux (human CXCR4 [4]): 3.8 nM
B1: V62.1-R108H-m43-m38 (antibody, human IgG1, V domains shown)
VH: EVQLLESGGGLVQPGGSLRLSCAASGFTFSSYAMSWVRQAPGKGLEWVSAISGSGGGSTRYADSVKGRFTISRDNSKNTLYLQMNSLRAEDTAVYYCARQGKTRVYGYHWHGYGSTHALDYWGQGTLVTVSS
VL: EIVLTQSPGTLSLSPGERATLSCRASQSVSSSYLAWYQQKPGQAPRLLIYGASSRATGIPDRFSGSGSGTDFTLTISRLEPEDFAVYYCQQWSSDSVTFGQGTKVEIKR
notes: Tested as an IgG (human IgG1 format); also called V62.1-H-m43-m38; IgG1 62.1-R108H-m43-m38
